Laboratory results: patent publication US20180037641A1

Key:
[1] = target: recombinant human tau, longest isoform hTau40 (441 aa) (human) (UniProt P10636); experiment: SPR (Biacore), tau immobilised on CM-5 chip, antibody injected 0.78-400 nM
[2] = target: recombinant mouse tau, longest isoform mTau40 (432 aa) (mouse) (UniProt P10637); experiment: as above
[3] = target: P301S human tau, T34 isoform (1N4R), of P301S tg mice (line PS19) (human) (UniProt P10636); experiment: cell-based or functional assay
RD(LM)-YFP = RD(LM)-YFP (UniProt P10636); experiment: cell-based or functional assay
RD(LM)-HA = RD(LM)-HA (UniProt P10636); experiment: cell-based or functional assay
[4] = target: tau RD aggregates passing between HEK293 cells in the propagation assay (RD(LM) and RD(ΔK) constructs); experiment: cell-based or functional assay
[5] = target: recombinant human tau, longest isoform hTau40 (441 aa) (human) (UniProt P10636); experiment: SPR (BIAcore 2000), tau immobilised on CM-5 chip, antibody injected 0.11-7.5 µg/ml, 1:1 Langmuir global fit
[6] = target: recombinant mouse tau, longest isoform mTau40 (432 aa) (mouse) (UniProt P10637); experiment: as above

Sequence of recombinant mouse tau, longest isoform mTau40 (432 aa) (mouse) (P10637 other isoform, or with tags, fused parts or gaps limits assumed): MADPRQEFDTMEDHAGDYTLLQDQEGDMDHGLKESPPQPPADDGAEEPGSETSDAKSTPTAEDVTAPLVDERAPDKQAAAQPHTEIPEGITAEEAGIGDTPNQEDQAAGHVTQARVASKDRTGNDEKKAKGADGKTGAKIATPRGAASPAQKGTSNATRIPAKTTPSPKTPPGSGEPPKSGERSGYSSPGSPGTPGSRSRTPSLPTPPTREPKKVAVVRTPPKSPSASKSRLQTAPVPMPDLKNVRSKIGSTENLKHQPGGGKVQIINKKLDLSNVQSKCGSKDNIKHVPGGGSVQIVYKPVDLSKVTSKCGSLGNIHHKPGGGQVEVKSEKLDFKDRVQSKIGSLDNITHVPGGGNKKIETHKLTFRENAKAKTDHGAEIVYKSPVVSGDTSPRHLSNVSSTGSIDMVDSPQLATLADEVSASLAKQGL

| Substance | Kd [1] [nM] | koff [1] [s⁻¹] | kon [1] [M⁻¹ s⁻¹] | Kd [2] [nM] | koff [2] [s⁻¹] | kon [2] [M⁻¹ s⁻¹] | antibody concentration that significantly blocked uptake and seeding activity [3] [µg/mL] | percentage of RD(LM)-YFP/mCherry dual positive cells (flow cytometry) (RD(LM)-YFP) [%] | RD(ΔK)-YFP in the insoluble pellet fraction (detergent fractionation, Western blot) (RD(LM)-HA) [% decrease] | tau protein present in the cell medium (pull-down, Western blot) [4] [fold] | Kd [5] [nM] | koff [5] [s⁻¹] | kon [5] [M⁻¹ s⁻¹] | Kd [6] [nM] | koff [6] [s⁻¹] | kon [6] [M⁻¹ s⁻¹] |
| --- | --- | --- | --- | --- | --- | --- | --- | --- | --- | --- | --- | --- | --- | --- | --- | --- |
| HJ9.3 (antibody) | 0.099 | 7.51e-06 | 75500 | 0.1 | 9.16e-06 | 86100 | 0.5 | 1.31 | 60 | 10 | 0.099 | 7.51e-06 | 75500 | 0.1 | 9.16e-06 | 86100 |
| HJ9.4 (antibody) | 6.9 | 0.00107 | 153000 | 0.00224 | 5.1e-07 | 228000 | – | – | – | – | 6.9 | 0.00107 | 153000 | 0.00224 | 5.1e-07 | 228000 |
